Experimental data as given in the domain aggregation screens of Martell et al. (2025).

assay: soluble fraction after stress (log2 fold change); higher = more stays soluble; pooled small domains, quantitative proteomics; settings: stress: pH 4
Method in brief: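 Aggregation propensity is estimated from the fold change in each domain's soluble amount after acid stress. Pooled small-domain libraries were stressed at pH 4, and higher log2 values mean more stayed soluble.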

Sequence	soluble fraction (log2)
HMQNYLLFEEAKNIVNTLNLTNEKDWSEFIKKDFTYKNQIPIFPNQYYKHKGWVDWNDWLGINK	-1.62
HMGNKDIEILFSEIVEMRNRIIHGFRITSKQGEQILATKTRKKDGNIQFEITKEYLLDFIKKNEELSDMLY	-1.49
HMHQGTIEVGSIVHIEGQKALGTILSLTQREAIVGLGALKTTIPLKRLHLATEAEARRHKKSVTPQEAV	0.284
HMDDSVTFSEFVRMVDSGQVESVRITGNEVTGSDSTGNTFRTFVPPQYEGLVNRLVERDVAVTAEE	-0.284
HMNDYNLTDREKEVLTFLFQGLEYKEIGMKMSVSPNTIRNHISNIYKKLHVTSKTQAIRVFLNN	-0.0426
HMPKITTIHIDPEKISKVIGPGGKTVKKIIEETGAKIDIEDTGKIFIAAVNTEAANKAIDMINGIVA	-0.0168
HMEDNLVTYPNPTSDYIYVSKKVDLTVVNMLGDILIQKQNINVLDVTELTPGMYTIVIRYNNVTTNKRIIK	-0.335
HMDITKPKISFEPGEMVRVVDGPFNDFSGVVEEVNYEKSKVRVAVLIFGRSTPVELQFNQIEK	-0.523
HMDLRIKEIMSERNVTSAWLAEKVGISKVAVSNIVTGKSSPSLDNLLKIADALNVSITTLIG	0.305
HMILNWSEYTRSEIIELARDLSPDKYMIIDDINTYSKMKLLPSQAFIAEMFGSLRQFQKEAWGRE	-1.27
HMNNIINEAQIKQWVEEFYLSVSPRPTRATMIALVHKKIKEETKDGEEGQTVSETLINNFYTALEKEHKRK	0.22
HMTVSRRYTENEMETALKAYLATHNFISRRDMQQEFALTIYSARKWLNHFVDVGLIERIGLKNAPIYKL	0.22
HMQNYTTIIGVIELRLNDISYDNVRKRYHIGRSGITLIMDRYRDSGLSLEDLKQMTPEKVVDLFYPR	0.0145
HMTSSQLNIEELERRMMMHLEQNGFITRSIYTNLTGRLKWKATEDLKIFVEKGLIRKMGRGNQMYYVKVE	-0.895
HMAQWGFNGSEAGDLSFQQGDVIEVVEKVKDDWWRGRVLGSTEIGLFPS	-1.64
HMKIDEVSFAYIERTLFSMLGKLPTPVNKVIATIGEEKKETIWEVIRFLESENKLITNEDGTLQL	-1.77
HMSEIYVDDINRKILYLLSQGIKTKSLLEHIPLSMSGIEKRKKQLKMLFSVEDGKDETLLEMAKEKGF	-1.07
HMAAPVGLTQRQMEVAALVADGLTNAEIGRRLHITERSAESHLERVRIRLGFRSRAQVAAWFVTQE	-0.493
HMKEHDTLALRLTAILRKLNDGEKLVPRELAEEFNVGIRTIQRDLTERLSFLDLEKTNGAYSLPTRNL	-0.36

Sequence	soluble fraction (log2)
HMQISLAAARVNAGLTQEEVAKAMKVGKQTIVSWEKGNSEPKMSQSRELSELYKIPLDYIFYP	0.138
HMTEPKRIVDHWQPSDDVYDILRMSHIDLDFARSLLPEFIVYWKDSSQTHTSWNSKFLQHAKYHWAKRHQL	-1.21
HMSRAAQRLFMSQPPLSRHIRQLEDRLGVTLFVRHTRGLTLTEDGQRVLEMVRPLLDLQDKTYAALSQLT	≥ 0.43
HMKEPPTLEEIKNYFASKLSTELESEKFFNYFESNGWLVGGKTPMKNWQSAANNWLINMSKFN	-0.323
HMDNIGKTLGQNQTRQYKVAYAEAAKLPAIIMGLVPLPKPPVVDERLRSLYVTATPEQHRQIETLMNRI	-0.64
HMSTDKIDIVSSAILSSLKDNDGFIGLTDKSPPPEIYTAFRVSKKVFKQAIGALYKQRRITLESSGIRLIS	-0.107
HMSVEVPNLIGKTLDQVDIDLKSLDLSFVILDSARYNSSFKPLSVIDHQPISGAKVKVNRKIYLTINPS	-0.358
HMQTASVRFADGQLEVKQKGLQRVSVYSLNGMTVANKAVQGQDYVTISLPRAAYIVKITTQNGSFTKVI	0.218
HMNKTLTEQIYDELKSAIIELELKPGEFVTEEYLAEQLGVSRTPLKSAISKLIFEGLMAYEVGKGTYIS	-1.32
HMGQQPPVTEIYKNHDGNKDGLLEAGEVTGSRYARQFPRWDVNGDQKVSPQEVIAFRKRFGIAADGTLL	0.0862
HMTETFVLNLRQPIAAAPVLPGYRVARTDEQTLEVEVSKDQNLNEIFTALSALGVEVLSMRNK	-0.303
HMEGNAFASTGDPEADILDITAVHPMRRDAVEELLARSGAEWSLVEGMLRDGKITMAPWEGEEFFIRS	-1.35
HMEEDPIIIAQRFLNIFRQLHIFSEEKKESFNKMLLEQPAEIRGALRSLPGGGLLQDYIDDLESKA	-0.711
HMNIDKLVGSTGTVVRSVTPDTAGLVRVNDEDWRASAEEILYERDAIVVEGIEGVTLIVSKLS	-1.54
HMIRTGEVVTGKVINVKEDQIILNIGFKSDGIITRNEYTNDNSLDLRTVVHEGDEIEAKVLKVNDGEGQVV	0.12
HMNTISTLEITTKKDIRILDESELLKSKSSKNNIFNYLLASGDFNLLKDKLNEIDEFSDEIISYQLN	-0.356
HMVTYELTEDEKFIVSLLEKENSQPIGALKDKSALSGKKWDAAMKGLAKHGLTKVVVDGDNKLVVL	-0.184
HMNNLGSKIKELRIAENLTQEKLAEELNVSFQSISRWENGISTPDISLIPAIARFFGVSTDYLFGLQD	-1.03
HMFADLNPDENYGQVYIRTNTIDNLYQTLLDNKTRIHPNGLLELKPWGQKEFSILDPDKNLLTFGES	-0.317
